Source: patent US20260184748A1, “COMPOSITIONS COMPRISING OCTADECANEUROPEPTIDES (ODN) AND SYNTHETIC DERIVATIVES THEREOF AND METHODS OF USE FOR MODULATION OF FOOD INTAKE, OBESITY, BODY WEIGHT, NAUSEA, AND EMESIS” (The Trustees of the University of Pennsylvania, priority 2022, published 2026)
One block for each binder: values may come before it. Where no end group is shown, it is not given here.

Assays:
Assay in all cases: cell-based or functional assay
CRHR1 = CRHR1 (UniProt P34998)
CRHR2 = biological target: T1, CRHR2 (UniProt Q13324)
T1 sequence (looked up): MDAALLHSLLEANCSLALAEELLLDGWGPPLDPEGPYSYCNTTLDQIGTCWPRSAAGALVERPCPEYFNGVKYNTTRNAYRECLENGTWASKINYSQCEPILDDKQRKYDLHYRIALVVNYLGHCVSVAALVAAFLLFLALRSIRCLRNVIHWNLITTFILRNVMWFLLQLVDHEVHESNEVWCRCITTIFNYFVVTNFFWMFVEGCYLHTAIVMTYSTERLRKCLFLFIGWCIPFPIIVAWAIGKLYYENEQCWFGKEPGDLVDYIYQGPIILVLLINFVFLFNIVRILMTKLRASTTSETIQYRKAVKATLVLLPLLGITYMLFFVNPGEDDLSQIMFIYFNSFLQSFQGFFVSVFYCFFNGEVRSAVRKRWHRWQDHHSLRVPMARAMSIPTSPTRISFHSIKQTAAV

CCR4 = biological target: T2, CCR4 (UniProt P51679)
T2 sequence (looked up): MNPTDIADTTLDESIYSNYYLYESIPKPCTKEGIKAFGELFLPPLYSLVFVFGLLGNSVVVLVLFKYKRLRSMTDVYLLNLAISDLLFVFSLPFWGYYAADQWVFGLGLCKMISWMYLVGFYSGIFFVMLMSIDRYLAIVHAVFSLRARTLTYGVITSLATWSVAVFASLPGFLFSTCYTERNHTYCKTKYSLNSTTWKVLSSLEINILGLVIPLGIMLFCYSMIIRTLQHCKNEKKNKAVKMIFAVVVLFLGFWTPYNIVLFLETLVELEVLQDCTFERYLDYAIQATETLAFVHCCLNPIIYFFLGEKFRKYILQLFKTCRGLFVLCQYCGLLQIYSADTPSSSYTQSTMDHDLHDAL

PPYR1 = PPYR1 (UniProt P50391)
Sequence of PPYR1 (P50391 whole entry): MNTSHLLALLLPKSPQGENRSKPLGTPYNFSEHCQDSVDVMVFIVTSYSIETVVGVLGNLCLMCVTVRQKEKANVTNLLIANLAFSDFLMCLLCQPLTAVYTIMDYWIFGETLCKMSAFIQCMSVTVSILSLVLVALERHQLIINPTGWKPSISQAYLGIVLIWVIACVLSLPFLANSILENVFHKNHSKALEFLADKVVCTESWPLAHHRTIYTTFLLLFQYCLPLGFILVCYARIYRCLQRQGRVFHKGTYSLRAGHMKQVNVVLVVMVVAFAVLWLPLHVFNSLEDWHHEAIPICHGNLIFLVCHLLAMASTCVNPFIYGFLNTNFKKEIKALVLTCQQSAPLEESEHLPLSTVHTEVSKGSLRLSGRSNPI

CCR10 = biological target: T3, CCR10 (UniProt P46092)
T3 sequence (looked up): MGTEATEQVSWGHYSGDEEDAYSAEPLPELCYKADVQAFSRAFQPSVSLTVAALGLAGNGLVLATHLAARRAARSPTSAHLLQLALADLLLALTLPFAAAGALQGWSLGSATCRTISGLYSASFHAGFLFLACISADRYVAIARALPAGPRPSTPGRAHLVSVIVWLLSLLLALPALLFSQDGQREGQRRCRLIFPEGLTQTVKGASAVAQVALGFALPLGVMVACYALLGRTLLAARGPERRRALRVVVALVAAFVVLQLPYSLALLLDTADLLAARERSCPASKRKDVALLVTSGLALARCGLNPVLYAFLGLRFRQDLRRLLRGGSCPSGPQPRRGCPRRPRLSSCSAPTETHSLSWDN

CXCR3 = CXCR3 (UniProt P49682)
Sequence of CXCR3 (P49682 whole entry): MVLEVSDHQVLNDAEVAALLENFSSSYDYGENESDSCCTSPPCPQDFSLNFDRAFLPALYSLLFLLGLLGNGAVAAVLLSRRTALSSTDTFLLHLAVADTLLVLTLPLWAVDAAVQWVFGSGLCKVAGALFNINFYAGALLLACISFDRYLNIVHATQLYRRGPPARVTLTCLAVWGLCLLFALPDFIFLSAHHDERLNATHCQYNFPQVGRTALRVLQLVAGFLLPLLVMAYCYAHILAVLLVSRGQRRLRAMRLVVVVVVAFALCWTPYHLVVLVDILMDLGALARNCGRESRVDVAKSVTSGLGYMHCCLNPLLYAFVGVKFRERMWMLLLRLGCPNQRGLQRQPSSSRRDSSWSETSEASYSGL

UTR2 = biological target: T4, UTR2 (UniProt Q9UKP6)
T4 sequence (looked up): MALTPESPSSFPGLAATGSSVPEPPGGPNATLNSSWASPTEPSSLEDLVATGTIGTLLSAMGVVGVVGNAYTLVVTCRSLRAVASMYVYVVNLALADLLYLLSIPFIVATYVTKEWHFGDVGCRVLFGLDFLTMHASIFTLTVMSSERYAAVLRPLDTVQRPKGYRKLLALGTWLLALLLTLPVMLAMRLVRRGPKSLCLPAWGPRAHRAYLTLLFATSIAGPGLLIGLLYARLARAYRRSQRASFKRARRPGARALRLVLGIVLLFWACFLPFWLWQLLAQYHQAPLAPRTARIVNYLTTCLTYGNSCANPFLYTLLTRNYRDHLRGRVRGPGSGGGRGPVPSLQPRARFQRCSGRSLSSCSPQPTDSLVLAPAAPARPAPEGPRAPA

GPR103 = GPR103 (UniProt Q96P65)
Sequence of GPR103 (Q96P65 whole entry): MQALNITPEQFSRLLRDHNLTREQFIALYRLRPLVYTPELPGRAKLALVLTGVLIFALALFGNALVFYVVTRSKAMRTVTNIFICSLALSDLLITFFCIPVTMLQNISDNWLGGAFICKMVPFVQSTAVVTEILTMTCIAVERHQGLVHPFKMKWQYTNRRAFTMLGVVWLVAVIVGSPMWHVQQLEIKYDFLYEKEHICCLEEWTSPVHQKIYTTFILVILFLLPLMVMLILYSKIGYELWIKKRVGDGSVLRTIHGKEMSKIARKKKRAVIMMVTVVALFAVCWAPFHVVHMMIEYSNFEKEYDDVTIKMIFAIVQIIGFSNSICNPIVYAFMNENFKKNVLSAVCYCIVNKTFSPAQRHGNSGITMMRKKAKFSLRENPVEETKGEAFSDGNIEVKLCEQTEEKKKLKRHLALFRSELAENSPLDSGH

MCHR2 = MCHR2 (UniProt Q969V1)
Sequence of MCHR2 (Q969V1 whole entry): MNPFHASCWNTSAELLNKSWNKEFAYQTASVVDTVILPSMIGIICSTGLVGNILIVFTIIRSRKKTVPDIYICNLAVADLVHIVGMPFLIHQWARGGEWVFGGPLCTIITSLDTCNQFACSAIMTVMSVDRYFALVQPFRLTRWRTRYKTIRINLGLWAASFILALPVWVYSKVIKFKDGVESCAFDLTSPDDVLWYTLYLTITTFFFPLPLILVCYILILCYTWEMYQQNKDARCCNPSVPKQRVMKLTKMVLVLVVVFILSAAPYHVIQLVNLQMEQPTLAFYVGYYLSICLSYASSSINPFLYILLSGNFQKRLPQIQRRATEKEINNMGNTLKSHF

MCHR1 = MCHR1 (UniProt Q99705)
Sequence of MCHR1 (Q99705 whole entry): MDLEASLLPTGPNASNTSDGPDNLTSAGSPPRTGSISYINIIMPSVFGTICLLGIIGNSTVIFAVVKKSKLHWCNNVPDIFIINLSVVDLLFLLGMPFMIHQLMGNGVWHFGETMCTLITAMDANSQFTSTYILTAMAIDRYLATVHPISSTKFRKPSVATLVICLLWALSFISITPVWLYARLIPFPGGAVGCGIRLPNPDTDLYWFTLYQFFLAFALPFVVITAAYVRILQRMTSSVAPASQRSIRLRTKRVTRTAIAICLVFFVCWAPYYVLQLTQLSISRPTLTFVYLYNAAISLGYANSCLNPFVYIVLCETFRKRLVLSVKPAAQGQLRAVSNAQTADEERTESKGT

DRD2L, P14416 = biological target: DRD2L, P14416
F2R, P25116 = biological target: F2R, P25116
Sequence of F2R, P25116 (P25116 22-425): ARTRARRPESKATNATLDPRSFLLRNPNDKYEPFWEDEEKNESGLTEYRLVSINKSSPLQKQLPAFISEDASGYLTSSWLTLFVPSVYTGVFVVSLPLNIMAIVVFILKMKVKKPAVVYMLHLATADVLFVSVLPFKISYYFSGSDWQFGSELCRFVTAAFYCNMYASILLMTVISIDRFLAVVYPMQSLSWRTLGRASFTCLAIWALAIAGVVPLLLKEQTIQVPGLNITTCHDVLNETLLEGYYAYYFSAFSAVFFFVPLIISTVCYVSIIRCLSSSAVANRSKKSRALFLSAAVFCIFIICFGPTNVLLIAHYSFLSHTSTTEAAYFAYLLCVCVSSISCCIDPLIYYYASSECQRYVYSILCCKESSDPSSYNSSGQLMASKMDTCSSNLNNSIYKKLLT

CXCR5 = CXCR5 (UniProt P32302)
Sequence of CXCR5 (P32302 whole entry): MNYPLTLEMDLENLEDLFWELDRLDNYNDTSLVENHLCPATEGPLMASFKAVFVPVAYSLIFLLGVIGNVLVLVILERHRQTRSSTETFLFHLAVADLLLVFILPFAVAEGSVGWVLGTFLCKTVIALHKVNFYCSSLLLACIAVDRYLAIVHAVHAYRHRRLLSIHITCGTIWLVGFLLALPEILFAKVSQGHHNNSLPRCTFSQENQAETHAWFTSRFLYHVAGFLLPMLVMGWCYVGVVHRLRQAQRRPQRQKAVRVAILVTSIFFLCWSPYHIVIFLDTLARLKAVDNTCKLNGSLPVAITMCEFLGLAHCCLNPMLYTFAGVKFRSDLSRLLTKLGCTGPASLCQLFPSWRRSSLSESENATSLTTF

CXCR6 = CXCR6 (UniProt O00574)
Sequence of CXCR6 (O00574 whole entry): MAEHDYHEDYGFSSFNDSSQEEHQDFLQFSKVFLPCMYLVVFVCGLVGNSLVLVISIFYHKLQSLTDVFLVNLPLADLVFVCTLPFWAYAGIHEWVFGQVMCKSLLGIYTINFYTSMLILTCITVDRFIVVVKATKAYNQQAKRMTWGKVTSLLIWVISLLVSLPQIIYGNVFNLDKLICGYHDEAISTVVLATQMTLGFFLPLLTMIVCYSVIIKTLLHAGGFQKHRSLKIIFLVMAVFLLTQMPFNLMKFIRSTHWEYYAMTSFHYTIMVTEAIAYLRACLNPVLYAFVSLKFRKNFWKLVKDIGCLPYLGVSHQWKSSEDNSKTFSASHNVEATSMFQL

CCR8 = CCR8 (UniProt P51685)
NPBWR1 = biological target: T5, NPBWR1 (UniProt P48145)
T5 sequence (looked up): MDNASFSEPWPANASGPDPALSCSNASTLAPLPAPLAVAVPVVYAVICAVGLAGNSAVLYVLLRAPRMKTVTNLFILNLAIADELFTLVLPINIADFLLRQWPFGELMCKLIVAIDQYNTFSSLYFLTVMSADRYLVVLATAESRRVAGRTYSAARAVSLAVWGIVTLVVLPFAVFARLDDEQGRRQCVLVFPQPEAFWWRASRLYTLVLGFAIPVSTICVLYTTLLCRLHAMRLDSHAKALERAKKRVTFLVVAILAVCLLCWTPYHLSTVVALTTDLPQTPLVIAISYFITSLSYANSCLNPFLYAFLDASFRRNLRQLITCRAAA

NPBWR2 = NPBWR2 (UniProt P48146)
Sequence of NPBWR2 (P48146 whole entry): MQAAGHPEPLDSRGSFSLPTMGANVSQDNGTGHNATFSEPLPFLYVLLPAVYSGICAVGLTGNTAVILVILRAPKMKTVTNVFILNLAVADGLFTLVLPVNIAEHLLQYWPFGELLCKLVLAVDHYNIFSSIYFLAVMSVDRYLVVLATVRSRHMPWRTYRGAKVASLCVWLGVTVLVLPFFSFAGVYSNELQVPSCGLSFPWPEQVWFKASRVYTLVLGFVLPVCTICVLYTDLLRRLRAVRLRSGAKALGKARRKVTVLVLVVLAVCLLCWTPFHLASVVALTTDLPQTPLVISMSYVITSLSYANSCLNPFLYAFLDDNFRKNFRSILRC

PROKR2 = PROKR2 (UniProt Q8NFJ6)
Sequence of PROKR2 (Q8NFJ6 whole entry): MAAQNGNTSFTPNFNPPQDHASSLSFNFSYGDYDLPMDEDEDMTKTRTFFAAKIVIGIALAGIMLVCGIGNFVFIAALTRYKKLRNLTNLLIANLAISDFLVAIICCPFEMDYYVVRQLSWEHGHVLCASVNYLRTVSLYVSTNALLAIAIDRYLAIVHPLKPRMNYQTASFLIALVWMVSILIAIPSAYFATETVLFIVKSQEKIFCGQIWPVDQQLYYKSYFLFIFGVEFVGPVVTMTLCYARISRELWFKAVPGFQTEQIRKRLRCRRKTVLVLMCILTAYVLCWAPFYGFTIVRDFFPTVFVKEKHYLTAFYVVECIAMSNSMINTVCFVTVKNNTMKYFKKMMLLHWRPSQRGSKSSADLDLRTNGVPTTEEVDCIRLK

PROKR1 = PROKR1 (UniProt Q8TCW9)
Sequence of PROKR1 (Q8TCW9 whole entry): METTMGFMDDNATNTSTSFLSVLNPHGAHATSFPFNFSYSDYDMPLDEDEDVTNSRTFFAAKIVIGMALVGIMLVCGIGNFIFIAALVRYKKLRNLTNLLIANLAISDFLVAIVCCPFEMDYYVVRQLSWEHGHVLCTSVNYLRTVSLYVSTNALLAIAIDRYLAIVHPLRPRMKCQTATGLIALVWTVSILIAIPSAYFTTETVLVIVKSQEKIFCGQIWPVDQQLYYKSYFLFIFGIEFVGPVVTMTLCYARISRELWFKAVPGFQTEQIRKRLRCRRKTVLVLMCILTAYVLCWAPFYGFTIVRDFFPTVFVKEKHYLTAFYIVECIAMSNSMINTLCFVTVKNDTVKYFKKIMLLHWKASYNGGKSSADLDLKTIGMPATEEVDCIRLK

NPSR1B = biological target: T6, NPSR1B (UniProt Q6W5P4)
T6 sequence (looked up): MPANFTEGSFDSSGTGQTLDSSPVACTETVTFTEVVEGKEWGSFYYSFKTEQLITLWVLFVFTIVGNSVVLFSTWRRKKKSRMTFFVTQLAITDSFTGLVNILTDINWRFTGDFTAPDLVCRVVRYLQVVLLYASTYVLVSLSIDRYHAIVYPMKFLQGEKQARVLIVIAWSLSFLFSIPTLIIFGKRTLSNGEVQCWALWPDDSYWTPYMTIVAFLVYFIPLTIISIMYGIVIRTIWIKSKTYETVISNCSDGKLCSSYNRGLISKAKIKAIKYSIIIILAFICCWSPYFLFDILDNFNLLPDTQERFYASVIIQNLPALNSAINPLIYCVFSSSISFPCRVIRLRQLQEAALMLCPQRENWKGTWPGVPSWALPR

NMU1R = NMU1R (UniProt Q9HB89)
Sequence of NMU1R (Q9HB89 whole entry): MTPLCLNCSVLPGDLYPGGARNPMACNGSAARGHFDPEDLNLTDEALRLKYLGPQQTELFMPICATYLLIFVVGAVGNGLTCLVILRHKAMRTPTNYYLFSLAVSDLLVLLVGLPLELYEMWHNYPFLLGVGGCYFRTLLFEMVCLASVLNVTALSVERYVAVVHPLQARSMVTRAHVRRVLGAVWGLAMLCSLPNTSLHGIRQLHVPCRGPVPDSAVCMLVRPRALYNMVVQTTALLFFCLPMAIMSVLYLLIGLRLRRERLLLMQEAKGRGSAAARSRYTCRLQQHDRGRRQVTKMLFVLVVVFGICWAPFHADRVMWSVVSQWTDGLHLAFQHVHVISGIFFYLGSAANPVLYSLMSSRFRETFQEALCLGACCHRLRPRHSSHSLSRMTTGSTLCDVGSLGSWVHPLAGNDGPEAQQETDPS

Sequence of CRHR1 (P34998 24-415 limits assumed): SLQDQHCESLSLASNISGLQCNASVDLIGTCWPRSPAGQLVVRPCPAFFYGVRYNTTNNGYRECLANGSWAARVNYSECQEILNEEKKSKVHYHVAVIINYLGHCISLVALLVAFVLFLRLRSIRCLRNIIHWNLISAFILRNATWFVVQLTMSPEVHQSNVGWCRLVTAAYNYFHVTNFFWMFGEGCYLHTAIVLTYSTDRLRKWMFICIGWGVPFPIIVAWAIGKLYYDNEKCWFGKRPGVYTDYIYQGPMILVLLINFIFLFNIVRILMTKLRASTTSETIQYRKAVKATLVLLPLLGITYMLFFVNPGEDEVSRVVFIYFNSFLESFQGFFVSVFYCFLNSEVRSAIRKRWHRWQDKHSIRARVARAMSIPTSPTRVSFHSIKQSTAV

EC50 (RC50), arrestin, agonist mode (CCR4): 3.44 nM
EC80, arrestin, agonist mode (CCR4): 19.7 nM
B1: CCL22 (ligand, UniProt O00626 25-93, looked up)
chain: GPYGANMEDSVCCRDYVRYRLPLRVVKHFYWTSDSCPRPGVVLLTFRDKEICADPRVPWVKMILNKLSQ

EC50 (RC50), arrestin, agonist mode (GPR103): 10 nM
EC80, arrestin, agonist mode (GPR103): 27.1 nM
Binder: TSGPLGNLAEELNGYSRKKGGFSFRF (peptide, UniProt P83859 108-133, looked up) [QRFP-26]

% Activity, arrestin, antagonist mode, 2.5 uM (DRD2L, P14416): -16.8%
% Activity, arrestin, antagonist mode, 2.5 uM (F2R, P25116): -17%
Binder: QATVGDVNTDRPGLLDLK (also: synthesised on Rink amide resin, C-terminal amide not given here outright) [octadecaneuropeptide (ODN)]

EC50 (RC50), arrestin, agonist mode (CXCR6): 6.81 nM
EC80, arrestin, agonist mode (CXCR6): 21 nM
B5: CXCL16 (ligand, UniProt Q9H2A7 30-118, looked up)
chain: NEGSVTGSCYCGKRISSDSPPSVQFMNRLRKHLRAYHRCLYYTRFQLLSWSVCGGNKDPWVQELMSCLDLKECGHAYSGIVAHQKHLLP

EC50 (RC50), arrestin, agonist mode (CCR8): 45.8 nM
EC80, arrestin, agonist mode (CCR8): 159 nM
B6: CCL1 (ligand, UniProt P22362 24-96, looked up)
chain: KSMQVPFSRCCFSFAEQEIPLRAILCYRNTSSICSNEGLIFKLKRGKEACALDTVGWVQRHRKMLRHCPSKRK

EC50 (RC50), arrestin, agonist mode (NPBWR1): 2.17 nM
EC80, arrestin, agonist mode (NPBWR1): 8.01 nM
EC50 (RC50), arrestin, agonist mode (NPBWR2): 3.62 nM
EC80, arrestin, agonist mode (NPBWR2): 12.2 nM
Binder: WYKHVASPRYHTVGRAAGLLMGL (peptide, UniProt Q8N729 33-55, looked up) [Neuropeptide W23]

EC50 (RC50), arrestin, agonist mode (NPSR1B): 23.6 nM
EC80, arrestin, agonist mode (NPSR1B): 45.4 nM
Binder: SFRNGVGTGMKKTSFQRAKS (peptide, UniProt P0C0P6 70-89, looked up) [Neuropeptide S]

EC50 (RC50), arrestin, agonist mode (NMU1R): 1.43 nM
EC80, arrestin, agonist mode (NMU1R): 3.68 nM
Binder: FRVDEEFQSPFASQSRGYFLFRPRN (peptide, UniProt P48645 142-166, looked up) [Neuromedin U-25]

Second part, the binder before the results:

Binder: QGPPISIDLSLELLRKMIEIEKQEKEKQQAANNRLLLDTI (peptide, UniProt P01144 1-40, looked up) [Sauvagine]
EC50 (RC50), arrestin, agonist mode (CRHR1): 3.28 nM
EC80, arrestin, agonist mode (CRHR1): 10.3 nM
EC50 (RC50), arrestin, agonist mode (CRHR2): 5.99 nM
EC80, arrestin, agonist mode (CRHR2): 24.5 nM

Binder: APLEPVYPGDNATPEQMAQYAADLRRYINMLTRPRY (peptide, UniProt P01298 30-65, looked up) [Pancreatic Polypeptide]
EC50 (RC50), arrestin, agonist mode (PPYR1): 1.5 nM
EC80, arrestin, agonist mode (PPYR1): 5 nM

B2: CCL27 (ligand, UniProt Q9Y4X3 25-112, looked up)
chain: FLLPPSTACCTQLYRKPLSDKLLRKVIQVELQEADGDCHLQAFVLHLAQRSICIHPQNPSLSQWFEHQERKLHGTLPKLNFGMLRKMG
EC50 (RC50), arrestin, agonist mode (CCR10): 26.3 nM
EC80, arrestin, agonist mode (CCR10): 109 nM

B3: CXCL11 (ligand, UniProt O14625 22-94, looked up)
chain: FPMFKRGRCLCIGPGVKAVKVADIEKASIMYPSNNCDKIEVIITLKENKGQRCLNPKSKQARLIIKKVERKNF
EC50 (RC50), arrestin, agonist mode (CXCR3): 12 nM
EC80, arrestin, agonist mode (CXCR3): 17.9 nM

Binder: ETPDCFWKYCV (peptide, UniProt O95399 114-124, looked up) [Urotensin II]
EC50 (RC50), arrestin, agonist mode (UTR2): 1.19 nM
EC80, arrestin, agonist mode (UTR2): 4.22 nM

Binder: DFDMLRCMLGRVYRPCWQV (peptide, UniProt P20382 147-165, looked up) [MCH]
EC50 (RC50), arrestin, agonist mode (MCHR2): 5.51 nM
EC80, arrestin, agonist mode (MCHR2): 20.2 nM
EC50 (RC50), arrestin, agonist mode (MCHR1): 167 nM
EC80, arrestin, agonist mode (MCHR1): 444 nM

B4: CXCL13 (ligand, UniProt O43927 23-109, looked up)
chain: VLEVYYTSLRCRCVQESSVFIPRRFIDRIQILPRGNGCPRKEIIVWKKNKSIVCVDPQAEWIQRMMEVLRKRSSSTLPVPVFKRKIP
EC50 (RC50), arrestin, agonist mode (CXCR5): 21 nM
EC80, arrestin, agonist mode (CXCR5): 61.2 nM

Binder: TFLLR-NH2 [TFLLR-NH2]
EC50 (RC50), arrestin, agonist mode (F2R, P25116): 14500 nM
EC80, arrestin, agonist mode (F2R, P25116): 28700 nM

B7: EG VEGF (ligand, UniProt P58294 20-105, looked up)
chain: AVITGACERDVQCGAGTCCAISLWLRGLRMCTPLGREGEECHPGSHKVPFFRKRKHHTCPCLPNLLCSRFPDGRYRCSMDLKNINF
EC50 (RC50), arrestin, agonist mode (PROKR2): 10.6 nM
EC80, arrestin, agonist mode (PROKR2): 30 nM
EC50 (RC50), arrestin, agonist mode (PROKR1): 17.7 nM
EC80, arrestin, agonist mode (PROKR1): 53.7 nM
